Paper PMC3585124, “The Interaction of CtIP and Nbs1 Connects CDK and ATM to Regulate HR–Mediated Double-Strand Break Repair” (PLoS Genetics, 2013)
Each block holds one molecule with its values, some of them ahead of it.

Experiments:
Nbs1 1-335 = Nbs1 1-335 (UniProt O60934); experiment: co-expression, GST pull-down, anti-Flag blot; conditions: reference: wild-type 200-600 fragment
BRCA1 = BRCA1 (UniProt P38398); experiment: co-immunoprecipitation, HA-CtIP and Myc-BRCA1; conditions: reference: wild type; sites S327
[1] = biological target: T1, GST-CtIP-His (purified CtIP-WT) (human, UniProt Q99708 1-897, phosphorylated by CDKs when expressed in insect cells (sites in Table S2)); experiment: pull-down; purified Nbs1(1–335) or Nbs1(1–335)-RRHK incubated with purified CtIP-WT or CtIP-12A-CDK coupled to glutathione agarose beads; Western blot with anti-His and anti-GST; conditions: both partners purified
T1 construct: CtIP, human; also called GST-CtIP WT
T1 sequence (Q99708 whole entry): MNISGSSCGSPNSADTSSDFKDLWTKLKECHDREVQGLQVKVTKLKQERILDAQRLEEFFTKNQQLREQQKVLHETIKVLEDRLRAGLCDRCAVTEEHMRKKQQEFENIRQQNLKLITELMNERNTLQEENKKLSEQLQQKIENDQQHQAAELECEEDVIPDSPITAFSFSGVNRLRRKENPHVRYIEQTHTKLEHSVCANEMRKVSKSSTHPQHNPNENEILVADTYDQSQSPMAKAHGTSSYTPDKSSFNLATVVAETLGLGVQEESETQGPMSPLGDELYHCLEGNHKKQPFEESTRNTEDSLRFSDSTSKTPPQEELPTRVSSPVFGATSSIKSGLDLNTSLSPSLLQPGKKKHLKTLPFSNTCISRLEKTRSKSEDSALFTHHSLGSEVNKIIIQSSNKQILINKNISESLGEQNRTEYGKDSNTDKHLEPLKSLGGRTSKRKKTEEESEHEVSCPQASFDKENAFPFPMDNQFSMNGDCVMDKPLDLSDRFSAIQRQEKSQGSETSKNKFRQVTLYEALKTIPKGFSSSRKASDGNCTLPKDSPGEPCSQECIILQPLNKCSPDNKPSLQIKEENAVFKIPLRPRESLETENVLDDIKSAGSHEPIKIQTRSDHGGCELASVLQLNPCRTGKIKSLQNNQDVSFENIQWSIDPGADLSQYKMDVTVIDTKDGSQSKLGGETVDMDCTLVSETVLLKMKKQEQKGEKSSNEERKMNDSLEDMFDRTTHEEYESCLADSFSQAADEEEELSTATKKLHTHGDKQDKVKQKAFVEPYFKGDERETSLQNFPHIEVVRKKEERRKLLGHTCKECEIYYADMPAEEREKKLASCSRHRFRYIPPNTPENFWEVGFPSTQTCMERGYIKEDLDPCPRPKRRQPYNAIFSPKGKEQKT

Molecule: CtIP (from UniProt Q99708) S327A
binding against the reference (BRCA1): weaker

Molecule: CtIP 200-600 (from UniProt Q99708) S233A/T245A/S276A (printed S233A/S245A/S276A)
binding against the reference (Nbs1 1-335; sites S233,T245,S276): weaker

B1: Purified Nbs1(1–335) (domain or fragment, human, UniProt O60934 1-335, looked up)
chain: MWKLLPAAGPAGGEPYRLLTGVEYVVGRKNCAILIENDQSISRNHAVLTANFSVTNLSQTDEIPVLTLKDNSKYGTFVNEEKMQNGFSRTLKSGDGITFGVFGSKFRIEYEPLVACSSCLDVSGKTALNQAILQLGGFTVNNWTEECTHLVMVSVKVTIKTICALICGRPIVKPEYFTEFLKAVESKKQPPQIESFYPPLDEPSIGSKNVDLSGRQERKQIFKGKTFIFLNAKQHKKLSSAVVFGGGEARLITEENEEEHNFFLAPGTCVVDTGITNSQTLIPDCQKKWIQSIMDMLQRQGLRPIPEAEIGLAVIFMTTKNYCDPQGHPSTGLKT
notes: also called Nbs1-WT-N; source: Sf9 insect cells, purified (Ni-NTA column followed by MonoQ column); not shown: His, C-terminal, kept
binding result [1]: binds

Second part, the molecule after the results:

binding against the reference (Nbs1 1-335; sites T315,S347): weaker
Molecule: CtIP 200-600 (from UniProt Q99708) T315A/S347A

binding against the reference (Nbs1 1-335; sites S233,T245,S276,T315,S347): lost
Molecule: CtIP 200-600 (from UniProt Q99708) 5A-CDK

binding against the reference (Nbs1 1-335; sites T245,S276,S347): weaker
Molecule: CtIP 200-600 (from UniProt Q99708) T245A/S276A/S347A
